From paper PMC6754446, “Regulation of the endosomal SNX27-retromer by OTULIN” (Nature Communications, 2019)
No end group written: not given here.

Legend:
Conditions in all cases: both partners purified
OTULINcat (aa 80-352) [1] = biological target: T1, OTULINcat (aa 80-352) (human, UniProt Q96BN8 80-352); assay: ITC; PDZ variant (150-450 µM) in the syringe, OTULINcat variant (20-30 µM) in the cell; 25 °C; 20 mM HEPES pH 7.4, 200 mM NaCl, 2 mM TCEP; single-site binding model
SNX27PDZ (aa 40–135) = SNX27PDZ (aa 40–135) (human, UniProt Q96L92 40-135); assay: ITC; 25 °C, 20 mM HEPES pH 7.4, 200 mM NaCl, 2 mM TCEP; 20–30 µM OTULINcat variant in the cell, 150–450 µM PDZ variant in the syringe; single-site model
OTULINcat (aa 80-352) [2] = biological target: T1, OTULINcat (aa 80-352); assay: ITC; SHANK1-3 PDZ in the syringe, OTULINcat in the cell; 30 °C; 20 mM HEPES pH 7.4, 200 mM NaCl, 2 mM TCEP; single-site binding model
[3] = biological target: SNX27 PDZ domain (aa 40-135) (human, UniProt Q96L92 40-135); assay: ITC; SNX27PDZ in the cell; OTULINcat, OTULIN PDZbm peptide or VPS26A in the syringe; 25 °C; 20 mM HEPES pH 7.4, 200 mM NaCl, 2 mM TCEP; single-site binding model
OTULINcat (aa 80–352) = biological target: T2, OTULINcat (aa 80–352) (human, UniProt Q96BN8 80-352); assay: ITC; 25 °C, 20 mM HEPES pH 7.4, 200 mM NaCl, 2 mM TCEP; 20–30 µM OTULINcat variant in the cell, 150–450 µM PDZ variant in the syringe; single-site model
T2 construct: OTULIN, human, aa 80–352; His6-3C construct in pOPIN-B; tag cleaved with 3C protease; source: E. coli Rosetta2 (DE3) pLacI, purified (HisTrap, anion exchange, SEC)
T2 sequence (Q96BN8 80-352): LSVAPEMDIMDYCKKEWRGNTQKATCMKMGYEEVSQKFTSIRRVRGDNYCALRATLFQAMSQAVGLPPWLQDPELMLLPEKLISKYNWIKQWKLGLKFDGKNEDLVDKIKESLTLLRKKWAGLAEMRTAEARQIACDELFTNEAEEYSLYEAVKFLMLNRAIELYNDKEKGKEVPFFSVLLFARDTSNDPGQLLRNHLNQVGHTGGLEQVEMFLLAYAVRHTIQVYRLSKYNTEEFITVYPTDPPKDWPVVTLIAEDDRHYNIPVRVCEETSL

T1 sequence (Q96BN8 80-352): as above

Row | Binder | Kd (OTULINcat (aa 80-352) [1]) [µM] | stoichiometry N (OTULINcat (aa 80-352) [1]) | also measured
1 | LNX2 PDZ3 (465-560) (domain or fragment, UniProt Q8N448 465-560, looked up, LNX2, third PDZ domain, residues 465-560; The printed DNA (288 nt) fits 96 residues; source: E. coli, purified analogous to SNX27PDZ (pOPIN-S vector)) QEKHITVKKEPHESLGMTVAGGRGSKSGELPIFVTSVPPHGCLARDGRIKRGDVLLNINGIDLTNLSHSEAVAMLKASAASPAVALKALEVQIVEE | 57.1 | 0.87 | 
2 | RhoGEF PDZ domain (41-123) (domain or fragment, UniProt O15085 41-123, looked up, RhoGEF, PDZ domain, residues 41-123; The printed DNA (249 nt) fits 83 residues; source: E. coli, purified analogous to SNX27PDZ (pOPIN-S vector)) TGLVQRCVIIQKDQHGFGFTVSGDRIVLVQSVRPGGAAMKAGVKEGDRIIKVNGTMVTNSSHLEVVKLIKSGAYVALTLLGSS | 38.3 | 0.96 | 
3 | VRVCEETSL (peptide, UniProt Q96BN8 344-352, looked up, OTULIN, human, aa 344–352; also called OTULIN PDZbm peptide) [OTULIN C-terminal PDZbm peptide (aa 344–352)] |  |  | Kd (SNX27PDZ (aa 40–135)): 1.1 µM
4 | SHANK1 PDZ domain (654-763) (domain or fragment, UniProt Q9Y566 654-763, looked up, source: E. coli, purified analogous to SNX27PDZ (pOPIN-S vector)) GSDYIIKEKTVLLQKKDSEGFGFVLRGAKAQTPIEEFTPTPAFPALQYLESVDEGGVAWRAGLRMGDFLIEVNGQNVVKVGHRQVVNMIRQGGNTLMVKVVMVTRHPDMD |  |  | Kd (OTULINcat (aa 80-352) [2]): 22.6 µM; stoichiometry N (OTULINcat (aa 80-352) [2]): 1
5 | Ac-VRVCEETSL (OTULIN, human, C-terminal PDZbm peptide, aa 344-352; also called OTULIN PDZbm peptide) [OTULIN C-terminal PDZbm peptide (aa 344-352)] |  |  | stoichiometry N [3]: 1.07
6 | SHANK2 PDZ domain (239-347) (domain or fragment, Printed 239-347 follows the older 1470-aa Q9UPX8 numbering; offset +379 to the current 1849-aa entry, so that the start falls on SDCIIEEKTV. The His6-SUMO tag was cleaved off.) SDCIIEEKTVVLQKKDNEGFGFVLRGAKADTPIEEFTPTPAFPALQYLESVDEGGVAWQAGLRTGDFLIEVNNENVVKVGHRQVVNMIRQGGNHLVLKVVTVTRNLDPD |  |  | Kd (OTULINcat (aa 80-352) [2]): 23.9 µM; stoichiometry N (OTULINcat (aa 80-352) [2]): 0.99
7 | SHANK3 PDZ domain (563-671) (domain or fragment, Printed 563-671 follows the older 1731-aa SHANK3 numbering; offset +75 to the current 1806-aa entry (inferred by homology to the SHANK2 start, 8 residues before the annotated PDZ). The His6-SUMO tag …) SDYVIDDKVAVLQKRDHEGFGFVLRGAKAETPIEEFTPTPAFPALQYLESVDVEGVAWRAGLRTGDFLIEVNGVNVVKVGHKQVVALIRQGGNRLVMKVVSVTRKPEED |  |  | Kd (OTULINcat (aa 80-352) [2]): 26.4 µM; stoichiometry N (OTULINcat (aa 80-352) [2]): 1
8 | PSD95 PDZ2 (155-249) (domain or fragment, UniProt P78352 155-249, looked up, PSD95, second PDZ domain, residues 155-249; The printed DNA (285 nt) fits 95 residues; source: E. coli, purified analogous to SNX27PDZ (pOPIN-S vector)) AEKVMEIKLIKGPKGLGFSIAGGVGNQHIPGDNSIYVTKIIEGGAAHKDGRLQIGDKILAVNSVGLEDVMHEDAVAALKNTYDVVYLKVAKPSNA | 98.9 | 0.91 | 
9 | Syntenin1 PDZ1 (domain or fragment, UniProt O00560 114-193, looked up, Syntenin1, PDZ1; source: expressed and purified analogous to SNX27PDZ (E. coli Rosetta2 (DE3) pLacI); His6-SUMO cleaved with SUMO protease) EVILCKDQDGKIGLRLKSIDNGIFVQLVQANSPASLVGLRFGDQVLQINGENCAGWSSDKAHKVLKQAFGEKITMTIRDR |  |  | Kd (OTULINcat (aa 80–352)): 1710 µM
10 | NHERF1 PDZ2 (150-235) (domain or fragment, UniProt O14745 150-235, looked up, The printed DNA (258 nt) fits 86 residues; source: E. coli, purified analogous to SNX27PDZ (pOPIN-S vector)) LRPRLCTMKKGPSGYGFNLHSDKSKPGQFIRSVDPDSPAEASGLRAQDRIVEVNGVCMEGKQHGDVVSAIRAGGDETKLLVVDRET | 35.6 | 1.14 | 
11 | Syntenin1 PDZ1 (108-196) (domain or fragment, UniProt Q9JI92 108-196, looked up, Syntenin-1, first PDZ domain, residues 108-196; The printed DNA (267 nt) fits 89 residues; source: E. coli, purified analogous to SNX27PDZ (pOPIN-S vector)) AEIKQGIREVILCKDQDGKIGLRLKSVDNGIFVQLVQANSPASLVGLRFGDQVLQINGENCAGWSSDKAHKVLKQAFGEKITMTIRDRP |  | 0.38 | 
